Test results: the RNAGym collection of RNA variant scans (doi:10.7554/elife.80360)

B1: Twister Ribozyme (parent)
chain: AACACUGCCAAUGCCGGUCCCAAGCCCGGAUAAAAGUGGAGGGGGCGG

Variants of: B1
Test: self-cleavage, relative activity (ratio to wild type); higher = more cleavage; co-transcriptional

Row | Variant | self-cleavage
1 | AACACUGCCAAUGCCGGUCCCAAGCCCGGAUAAAAGUGGAUGGGGCGU [G41U G48U] | 0.584
2 | AACACUGCCAAUGCCGGUCCCAAGCCCGGAUAAAAGUGGCGGGCGCGG [A40C G44C] | 0.226
3 | AACACUGCCAAUGCCGGUCCCAAGCCCGGAUAAAAGUGGAAGGGGCGU [G41A G48U] | 0.511
4 | AACACUGCCAAUGCCGGUCCCAAGCCCGGAUAAAAGUGGAGCGGACGG [G42C G45A] | 0.329
5 | AACACUGCCAAUGCCGGUCCCAAGCCCGGAUAAAAGUGGAGCGGGAGG [G42C C46A] | 0.289
6 | AACACUGCCAAUGCCGGUCCCAAGCCCGGAUAAAAGUGGGGGGGGCCG [A40G G47C] | 0.192
7 | AACACUGCCAAUGCCGGUCCCAAGCCCGGAUAAAAGUGGGGGGGGCAG [A40G G47A] | 0.102
8 | AACACUGCCAAUGCCGGUCCCAAGCCCGGAUAAAAGUGGACGGGGCUG [G41C G47U] | 0.149
9 | AACACUGCCAAUGCCGGUCCCAAGCCCGGAUAAAAGUGGAGCGGGCGG [G42C] | 0.622
10 | AACACUGCCAAUGCCGGUCCCAAGCCCGGAUAAAAGUGGAGAGGGCGG [G42A] | 0.516
11 | AACACUGCCAAUGCCGGUCCCAAGCCCGGAUAAAAGUGGAGACGGCGG [G42A G43C] | 0.113
12 | AACACUGCCAAUGCCGGUCCCAAGCCCGGAUAAAAGUGGAGAGGGUGG [G42A C46U] | 0.349
13 | AACACUGCCAAUGCCGGUCCCAAGCCCGGAUAAAAGUGGAGAGGGAGG [G42A C46A] | 0.251
14 | AACACUGCCAAUGCCGGUCCCAAGCCCGGAUAAAAGUGGUGGGGGCAG [A40U G47A] | 0.164
15 | AACACUGCCAAUGCCGGUCCCAAGCCCGGAUAAAAGUGUCGGGGGCGG [G39U A40C] | 0.134
16 | AACACUGCCAAUGCCGGUCCCAAGCCCGGAUAAAAGUGUUGGGGGCGG [G39U A40U] | 0.158
17 | AACACUGCCAAUGCCGGUCCCAAGCCCGGAUAAAAGUGUGGGGGGCGG [G39U A40G] | 0.128
18 | AACACUGCCAAUGCCGGUCCCAAGCCCGGAUAAAAGUGGAUGGGGGGG [G41U C46G] | 0.509
19 | AACACUGCCAAUGCCGGUCCCAAGCCCGGAUAAAAGUGGAUGGGGUGG [G41U C46U] | 0.68
20 | AACACUGCCAAUGCCGGUCCCAAGCCCGGAUAAAAGUGUAGGGGGUGG [G39U C46U] | 0.23
21 | AACACUGCCAAUGCCGGUCCCAAGCCCGGAUAAAAGUGUAGGGGGAGG [G39U C46A] | 0.19
22 | AACACUGCCAAUGCCGGUCCCAAGCCCGGAUAAAAGUGUAGGGGGGGG [G39U C46G] | 0.172
23 | AACACUGCCAAUGCCGGUCCCAAGCCCGGAUAAAAGUGGAUGGCGCGG [G41U G44C] | 0.218
24 | AACACUGCCAAUGCCGGUCCCAAGCCCGGAUAAAAGUGGAUGGGUCGG [G41U G45U] | 0.25
25 | AACACUGCCAAUGCCGGUCCCAAGCCCGGAUAAAAGUGUAGGAGGCGG [G39U G43A] | 0.138
26 | AACACUGCCAAUGCCGGUCCCAAGCCCGGAUAAAAGUGUAGGCGGCGG [G39U G43C] | 0.132
27 | AACACUGCCAAUGCCGGUCCCAAGCCCGGAUAAAAGUGGAAGGGGCUG [G41A G47U] | 0.236

Row | Variant | self-cleavage
28 | AACACUGCCAAUGCCGGUCCCAAGCCCGGAUAAAAGUGGGUGGGGCGG [A40G G41U] | 0.166
29 | AACACUGCCAAUGCCGGUCCCAAGCCCGGAUAAAAGUGUAGGGGACGG [G39U G45A] | 0.151
30 | AACACUGCCAAUGCCGGUCCCAAGCCCGGAUAAAAGUGUAGGGGUCGG [G39U G45U] | 0.141
31 | AACACUGCCAAUGCCGGUCCCAAGCCCGGAUAAAAGUGGAGCUGGCGG [G42C G43U] | 0.137
32 | AACACUGCCAAUGCCGGUCCCAAGCCCGGAUAAAAGUGGAGCCGGCGG [G42C G43C] | 0.365
33 | AACACUGCCAAUGCCGGUCCCAAGCCCGGAUAAAAGUGGAGAGGUCGG [G42A G45U] | 0.153
34 | AACACUGCCAAUGCCGGUCCCAAGCCCGGAUAAAAGUGGAGAGGCCGG [G42A G45C] | 0.187
35 | AACACUGCCAAUGCCGGUCCCAAGCCCGGAUAAAAGUGGAAAGGGCGG [G41A G42A] | 0.129
36 | AACACUGCCAAUGCCGGUCCCAAGCCCGGAUAAAAGUGGAAUGGGCGG [G41A G42U] | 0.156
37 | AACACUGCCAAUGCCGGUCCCAAGCCCGGAUAAAAGUGGAACGGGCGG [G41A G42C] | 0.094
38 | AACACUGCCAAUGCCGGUCCCAAGCCCGGAUAAAAGUGGACUGGGCGG [G41C G42U] | 0.167
39 | AACACUGCCAAUGCCGGUCCCAAGCCCGGAUAAAAGUGGACCGGGCGG [G41C G42C] | 0.129
40 | AACACUGCCAAUGCCGGUCCCAAGCCCGGAUAAAAGUGGACAGGGCGG [G41C G42A] | 0.125
41 | AACACUGCCAAUGCCGGUCCCAAGCCCGGAUAAAAGUGGACGGGGGGG [G41C C46G] | 0.286
42 | AACACUGCCAAUGCCGGUCCCAAGCCCGGAUAAAAGUGGACGGGGAGG [G41C C46A] | 0.254
43 | AACACUGCCAAUGCCGGUCCCAAGCCCGGAUAAAAGUGGAAGGGGUGG [G41A C46U] | 0.612
44 | AACACUGCCAAUGCCGGUCCCAAGCCCGGAUAAAAGUGGAAGGGGAGG [G41A C46A] | 0.356
45 | AACACUGCCAAUGCCGGUCCCAAGCCCGGAUAAAAGUGGAAGGGGGGG [G41A C46G] | 0.429
46 | AACACUGCCAAUGCCGGUCCCAAGCCCGGAUAAAAGUGGGGGGGACGG [A40G G45A] | 0.146
47 | AACACUGCCAAUGCCGGUCCCAAGCCCGGAUAAAAGUGGGGGGAGCGG [A40G G44A] | 0.157
48 | AACACUGCCAAUGCCGGUCCCAAGCCCGGAUAAAAGUGUAGGGGGCGC [G39U G48C] | 0.265
49 | AACACUGCCAAUGCCGGUCCCAAGCCCGGAUAAAAGUGUAGGGGGCGA [G39U G48A] | 0.156
50 | AACACUGCCAAUGCCGGUCCCAAGCCCGGAUAAAAGUGGAGAGGGCUG [G42A G47U] | 0.325
51 | AACACUGCCAAUGCCGGUCCCAAGCCCGGAUAAAAGUGGAGAGGGCCG [G42A G47C] | 0.241
52 | AACACUGCCAAUGCCGGUCCCAAGCCCGGAUAAAAGUGGUGGGGACGG [A40U G45A] | 0.192
53 | AACACUGCCAAUGCCGGUCCCAAGCCCGGAUAAAAGUGGUGGGGCCGG [A40U G45C] | 0.129
54 | AACACUGCCAAUGCCGGUCCCAAGCCCGGAUAAAAGUGGUGGGGUCGG [A40U G45U] | 0.177
